Laboratory results as given in PMC4113602.
Like-named read-outs stand apart in the source and are kept apart here.

Legend:
[1] = target: E-cadherin ECD (Mus musculus) (UniProt P09803); details: cited from earlier work
[2] = target: E-cadherin ECD (Mus musculus) (UniProt P09803); details: cited from earlier work; remark: listed apart in the source
[3] = target: W2A E-cadherin/ATH monomer (E-cadherin extracellular domains EC1-EC5, W2A, N20C); assay: FRET or BRET
[4] = target: W2A E-cadherin/ATH monomer (E-cadherin extracellular domains EC1-EC5, W2A, N20C); assay: cross-linking
[5] = target: W2A E-cadherin/ATH monomer (E-cadherin extracellular domains EC1-EC5, W2A, N20C); assay: single molecule AFM force measurement

| FRET efficiency (peak) [3] | cross-linked dimer yield [4] [%] | bond strength (unbinding force) [5] [pN] | Substance | Kd [1] [mM] | Kd [2] [mM] |
| --- | --- | --- | --- | --- | --- |
|  |  |  | E-cadherin ECD (from UniProt P09803) | 10 | 0.72 |
| 0.74 | 20 | 17 | W2A E-cadherin/ATH monomer (E-cadherin extracellular domains EC1-EC5, W2A, N20C) (domain or fragment) |  |  |
